We go through twelve molecules from US7432242B2, “Inhibitors of RGS proteins” (The Regents of the University of Michigan, priority 2002, dated 2008).

Where a SMILES comes first, the peptide text is derived from it. Bridges are numbered along the chain shown (N, C = ends). Where no end group is shown, it is not given here.

The target in the first assay is RGS4 (Homo sapiens, UniProt P49798). The assay can be described thus: Steady-state GTPase assay, RGS4-stimulated, CHO cell membranes expressing α2a AR. Format: biochemical. The arrangement: key to Activity (inhibitory activity, relative scale): −: —(no inhibition); relative scale from—(no inhibition) to +++. The settings on record: RGS-stimulated GTPase activity. The method, then: (§1) In some embodiments, the membrane assay comprises a GTPase assay (See e.g, Berman et al., J. Biol. Chem., 271:27209 [1996] and Berman et al., Cell 86:445 [1996]). In such embodiments, α2A adrenergic receptor expressing membranes are pre-incubated with γ-^32P GTP and RGS proteins. In some embodiments, membranes contain both α2A adrenergic receptor and Gαo subunits, allowing measurement of both Gi and Go-coupled RGS proteins. In some embodiments, a steady-state GTPase assay is utilized to assay RGS inhibitors (See e.g., Wise and Milligan, J. Biol. Chem., 272:24673 [1997]).
Chain of RGS4 (P49798 whole entry, species assumed): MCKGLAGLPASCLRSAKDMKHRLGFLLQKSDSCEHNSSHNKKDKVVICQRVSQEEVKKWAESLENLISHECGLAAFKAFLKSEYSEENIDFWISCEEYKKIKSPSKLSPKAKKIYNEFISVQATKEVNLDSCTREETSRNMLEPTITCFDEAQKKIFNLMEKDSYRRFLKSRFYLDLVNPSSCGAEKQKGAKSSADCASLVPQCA
This example describes a novel method of assaying for inhibitors of RGS-mediated GTPase Acceleration. A modified version of the [^35S] GTPγS binding method described in Wieland et al., 1994 (Wieland et al., Methods Enzymol. 237:3 [1994]) was utilized, with the exception that an RGS protein was included to enhance the receptor stimulation of GTPγS binding. RGS-mediated enhancement of receptor-stimulated [^35S]GTPγS binding was determined in CHO cell membranes expressing high densities (10-20 pmol/mg) of receptor. The method is not limited to the alpha 2a adrenergic receptor or the CHO membrane described herein. The membrane can be from other cell types and/or expressing other G protein coupled receptors (e.g., including, but not limited to, other Gi coupled receptors).
The assay buffer was 50 mM Tris, 5 mM MgCl2, 1 mM EDTA, 100 mM NaCl, 1 mM DTT, pH 7.6. The reaction mixture also contained the following components. Some preferred embodiments include at least one of the components marked with an *. • 1. High nanomolar or low micromolar concentrations (typically 1 μM) of GDP.* • 2. 4 μg of Chinese hamster ovary (CHO) membranes expressing the alpha 2a adrenergic receptor (α2AAR) at a receptor density of ˜10-20 pmol/mg. α2AAR-CHO membranes were prepared as previously described (Wade et al., Mol. Pharmacol. 56: 1005 [1999]). Membranes were re-suspended in Tris/MgCl2/EGTA (TME) buffer (50 mM Tris, 10 mM MgCl2, 1 mM EGTA, pH 7.6) and were aliquoted before being frozen in liquid N2 and stored at −80° C. until use. The receptor density in the α2aAR-CHO membranes was determined by [^3H] yohimbine binding and Bradford assay (Bradford, Anal. Biochem. 72: 248 [1976]). • 3. 0.2 nM-50 nM [^35S]GTPγS. A low concentration with respect to the higher concentrations of G protein and GTP utilized is necessary*. • 4. Saturating concentration of agonist for the receptor type utilized. UK 14,304 (10 μM). • 5. RGS proteins at μM or high nM ranges. • 6. GTP at high nM or low μM ranges. This is the most critical component of this method, since the massive GTP hydrolysis accelerated by RGS promotes formation of the empty DRG state which is detected by the low concentration of [^35S]GTPγS.*
Activity was measured by use of CHO cell membranes expressing the α2a AR at high levels (10-20 pmol/mg) described in Example 1 above.
Subsequently, a series of constrained peptides (Table 3) was prepared and the inhibitory activity tested. The inhibitory activity is shown in Table 3 as a relative scale from—(no inhibition) to +++.
As for VKTTGIVE, the “Inhibition of RGS-mediated GTPase acceleration (in words)” value was “no activity”.

The assay is the same for the next values; noted with them: inhibition of RGS4-mediated GTPase acceleration.
As for “ES2(Et) (VKCTGFCE; cysteine pairing not given here; also: Et modification)”, the “Activity (inhibitory activity, relative scale)” value is reported as “+++”. On the same count and under the same terms, with “JO1(Et) (VKCTGICE; cysteine pairing not given here; also: Et modification)” the entry was “−”; with “YJ4(Et) (VKCTSICE; bridge 3-7; also: Et modification, place not given here, cross-link 3-7: disulfide, thioether or lactam)”, “+++”; with “YJ5(Et) (KCTSICE; cysteine pairing not given here; also: Et modification)”, “−”. In the case of “YJ6(Et) (VKCTSICE; bridge 3-7; also: Et modification, place not given here, cross-link 3-7: disulfide, thioether or lactam)”, the “Activity (inhibitory activity, relative scale)” value is given as “−”. Same read-out and setting: for “YJ15(Et) (VKCTGICE; bridge 3-7; also: Et modification, place not given here, cross-link 3-7: disulfide, thioether or lactam)” the value was “−”.

The assay is the same for the next values; noted with them: steady-state membrane GTPase assay.
In the case of `CC[C@H](C)[C@@H]1NC(=O)CNC(=O)[C@H]([C@@H](C)O)NC(=O)[C@@H](NC(=O)[C@H](CCCCN)NC(=O)[C@@H](NC(C)=O)C(C)C)CSCCSC[C@@H](C(=O)N[C@@H](CCC(=O)O)C(N)=O)NC1=O` [JMRAc(Et)] (HELM PEPTIDE1{[ac].V.K.C.T.G.I.C.E.[am]}|CHEM1{[C(C[*:2])[*:1]]}$PEPTIDE1,CHEM1,4:R3-1:R1|PEPTIDE1,CHEM1,8:R3-1:R2$$$V2.0), the IC50 worked out at 88 µM. As to `CC[C@H](C)[C@@H]1NC(=O)CNC(=O)[C@H]([C@@H](C)O)NC(=O)[C@@H](NC(=O)[C@H](CCCCN)NC(=O)[C@@H](NC(C)=O)C(C)C)CCCNC(=O)CC[C@@H](C(=O)N[C@@H](CCC(=O)O)C(N)=O)NC1=O` [YJ13(lactam)] (HELM PEPTIDE1{[ac].V.K.[Orn].T.G.I.E.E.[am]}$PEPTIDE1,PEPTIDE1,4:R3-8:R3$$$V2.0), the IC50 was 25 µM. The molecule `CC[C@H](C)[C@@H]1NC(=O)CNC(=O)[C@H]([C@@H](C)O)NC(=O)[C@@H](NC(=O)[C@H](CCCCN)NC(=O)[C@@H](NC(C)=O)C(C)C)CCC(=O)NCCCC[C@@H](C(=O)N[C@@H](CCC(=O)O)C(N)=O)NC1=O` [YJ14(lactam)] (HELM PEPTIDE1{[ac].V.K.E.T.G.I.K.E.[am]}$PEPTIDE1,PEPTIDE1,4:R3-8:R3$$$V2.0) yielded an IC50 of 260 µM. The molecule `CC[C@H](C)[C@@H]1NC(=O)CNC(=O)[C@H]([C@@H](C)O)NC(=O)[C@@H](NC(=O)[C@H](CCCCN)NC(=O)[C@@H](NC(C)=O)C(C)C)CSCSC[C@@H](C(=O)N[C@@H](CCC(=O)O)C(N)=O)NC1=O` [Yja] (HELM PEPTIDE1{[ac].V.K.C.T.G.I.C.E.[am]}|CHEM1{[C([*:1])[*:2]]}$PEPTIDE1,CHEM1,4:R3-1:R1|PEPTIDE1,CHEM1,8:R3-1:R2$$$V2.0) registered a 50% inhibitory concentration (IC50) of 79 µM. As to `CC[C@H](C)[C@@H]1NC(=O)CNC(=O)[C@H]([C@@H](C)O)NC(=O)[C@@H](NC(=O)[C@H](CCCCN)NC(=O)[C@@H](NC(C)=O)C(C)C)CSSC[C@@H](C(=O)N[C@@H](CCC(=O)O)C(N)=O)NC1=O` [Yjb] (HELM PEPTIDE1{[ac].V.K.C.T.G.I.C.E.[am]}$PEPTIDE1,PEPTIDE1,4:R3-8:R3$$$V2.0), it took 26 µM to reach half-maximal inhibition (IC50).

Another assay deals with T1, RGS8 (Homo sapiens, UniProt P57771).
T1 sequence (P57771 1-180): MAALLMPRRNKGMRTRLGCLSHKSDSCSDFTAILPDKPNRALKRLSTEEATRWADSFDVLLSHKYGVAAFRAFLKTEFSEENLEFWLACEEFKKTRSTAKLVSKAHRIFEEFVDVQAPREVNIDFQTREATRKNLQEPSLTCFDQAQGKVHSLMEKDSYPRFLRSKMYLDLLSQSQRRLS
Put plainly: Steady-state membrane GTPase assay, RGS8-stimulated. Format: biochemical.
Details: not given
As for the experimental part: as §1
In addition to the inhibitory activity against RGS4 mediated GTPase acceleration, three of the peptides found to be most inhibitory against RGS4 were tested for their ability to inhibit RGS8 stimulated GTPase activity.
The molecule `CC[C@H](C)[C@@H]1NC(=O)CNC(=O)[C@H]([C@@H](C)O)NC(=O)[C@@H](NC(=O)[C@H](CCCCN)NC(=O)[C@@H](NC(C)=O)C(C)C)CCCNC(=O)CC[C@@H](C(=O)N[C@@H](CCC(=O)O)C(N)=O)NC1=O` [YJ13(lactam)] (HELM PEPTIDE1{[ac].V.K.[Orn].T.G.I.E.E.[am]}$PEPTIDE1,PEPTIDE1,4:R3-8:R3$$$V2.0) yielded an IC50 of 161 µM. Regarding `CC[C@H](C)[C@@H]1NC(=O)CNC(=O)[C@H]([C@@H](C)O)NC(=O)[C@@H](NC(=O)[C@H](CCCCN)NC(=O)[C@@H](NC(C)=O)C(C)C)CCC(=O)NCCCC[C@@H](C(=O)N[C@@H](CCC(=O)O)C(N)=O)NC1=O` [YJ14(lactam)] (HELM PEPTIDE1{[ac].V.K.E.T.G.I.K.E.[am]}$PEPTIDE1,PEPTIDE1,4:R3-8:R3$$$V2.0), the IC50 came out at 840 µM.

In general, IC50 refers to the concentration that gives 50% inhibition.
